Assay results taken from US20070178082A1 (Ablynx, published 2007).

Legend:
rabbit serum albumin = rabbit serum albumin (rabbit, UniProt P49065 25-608); assay: Blot: phage displaying the nanobody on plasma (1/10) separated by SDS-PAGE and blotted on nitrocellulose, anti-M13-HRP [panel MSA 24]
mouse serum albumin = target: T1, mouse serum albumin (mouse, UniProt P07724 25-608); assay: BIACORE, mouse albumin immobilised on CM5 chip
T1 construct: also called MSA; mouse albumin
T1 sequence (P07724 25-608 limits assumed): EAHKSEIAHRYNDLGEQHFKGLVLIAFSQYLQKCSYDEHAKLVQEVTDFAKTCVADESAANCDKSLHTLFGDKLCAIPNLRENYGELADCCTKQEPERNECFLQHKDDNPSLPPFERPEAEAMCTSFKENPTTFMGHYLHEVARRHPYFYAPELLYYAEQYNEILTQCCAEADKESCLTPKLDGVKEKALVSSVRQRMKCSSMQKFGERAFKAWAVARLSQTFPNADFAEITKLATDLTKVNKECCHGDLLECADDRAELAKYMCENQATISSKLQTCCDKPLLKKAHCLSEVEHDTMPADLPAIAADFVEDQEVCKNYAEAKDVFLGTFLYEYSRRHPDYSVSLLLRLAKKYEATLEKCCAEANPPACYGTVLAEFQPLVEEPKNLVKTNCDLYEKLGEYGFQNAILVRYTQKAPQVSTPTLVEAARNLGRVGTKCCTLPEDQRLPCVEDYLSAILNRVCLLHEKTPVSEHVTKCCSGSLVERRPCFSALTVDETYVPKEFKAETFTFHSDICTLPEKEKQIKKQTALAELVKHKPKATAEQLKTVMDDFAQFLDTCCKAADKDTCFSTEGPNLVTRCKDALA

Chain of rabbit serum albumin (P49065 25-608 limits assumed): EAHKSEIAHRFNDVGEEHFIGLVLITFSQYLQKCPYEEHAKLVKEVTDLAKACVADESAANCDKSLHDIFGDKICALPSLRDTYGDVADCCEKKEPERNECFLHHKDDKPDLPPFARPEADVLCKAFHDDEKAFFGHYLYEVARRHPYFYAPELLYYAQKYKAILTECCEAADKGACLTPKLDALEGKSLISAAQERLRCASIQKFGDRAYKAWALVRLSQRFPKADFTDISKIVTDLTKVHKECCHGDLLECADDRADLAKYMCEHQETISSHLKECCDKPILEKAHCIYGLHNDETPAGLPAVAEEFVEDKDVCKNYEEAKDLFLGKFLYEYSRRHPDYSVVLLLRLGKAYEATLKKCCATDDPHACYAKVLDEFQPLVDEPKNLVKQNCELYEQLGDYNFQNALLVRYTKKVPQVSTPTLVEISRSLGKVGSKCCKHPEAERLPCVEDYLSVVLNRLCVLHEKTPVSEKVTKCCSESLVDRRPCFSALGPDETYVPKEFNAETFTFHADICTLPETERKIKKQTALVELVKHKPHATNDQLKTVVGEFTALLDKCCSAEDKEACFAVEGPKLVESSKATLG

B1: MSA24 (VHH)
VHH: QVQLQESGGGLVQPGNSLRLSCAASGFTFRNFGMSWVRQAPGKEPEWVSSISGSGSNTIYADSVKDRFTISRDNAKSTLYLQMNSLKPEDTAVYYCTIGGSLSRSSQGTQVTVSS
notes: Llama VHH selected on mouse serum albumin
In the case of B1, the binding result (rabbit serum albumin) is reported as “no binding”, the Kd (mouse serum albumin) is reported as 28 nM and the koff (mouse serum albumin) is reported as 0.018 s⁻¹. The kon (mouse serum albumin) was 640000 M⁻¹ s⁻¹.
